Data on one substance can be found in patent US20030143192A1.

This test deals with human CCR3 (human) (UniProt P51677). The test can be described thus: cell-based or functional assay.
Sequence of human CCR3 (human) (P51677 whole entry): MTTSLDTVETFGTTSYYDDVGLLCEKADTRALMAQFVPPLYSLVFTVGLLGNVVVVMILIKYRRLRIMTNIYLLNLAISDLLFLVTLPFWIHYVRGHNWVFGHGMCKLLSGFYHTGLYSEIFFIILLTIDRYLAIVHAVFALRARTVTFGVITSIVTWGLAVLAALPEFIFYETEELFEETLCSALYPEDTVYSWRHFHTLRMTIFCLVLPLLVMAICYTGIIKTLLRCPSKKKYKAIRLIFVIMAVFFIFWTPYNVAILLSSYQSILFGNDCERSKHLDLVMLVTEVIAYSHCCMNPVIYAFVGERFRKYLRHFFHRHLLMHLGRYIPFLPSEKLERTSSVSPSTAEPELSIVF

Consider “aminooxypentane (AOP)-RANTES (from UniProt P13501 24-91) (ligand)”, for which the reduction of 25 nM eotaxin-induced Ca^2+ flux in HOS-CCR3 cells by 100 nM antagonist was found to be 35%.
